Laboratory results published in paper PMC2628611.

Target: GST-DOC2b (wild type) (mouse) (UniProt P70169)
Experiment: pull-down

Chain of UniProt P70169 (P70169 whole entry): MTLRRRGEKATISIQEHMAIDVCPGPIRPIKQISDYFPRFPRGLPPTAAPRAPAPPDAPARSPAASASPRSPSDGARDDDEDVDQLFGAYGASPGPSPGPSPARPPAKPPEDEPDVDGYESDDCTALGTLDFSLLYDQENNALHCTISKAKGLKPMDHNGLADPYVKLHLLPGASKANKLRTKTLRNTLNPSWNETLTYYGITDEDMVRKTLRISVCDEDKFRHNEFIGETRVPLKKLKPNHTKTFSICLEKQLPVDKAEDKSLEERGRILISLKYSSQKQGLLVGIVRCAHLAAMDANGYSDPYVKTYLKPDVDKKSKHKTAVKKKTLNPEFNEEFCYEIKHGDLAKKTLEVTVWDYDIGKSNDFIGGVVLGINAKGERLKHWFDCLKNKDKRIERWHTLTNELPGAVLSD

## recombinant syntaxin-4 (cleaved from GST syntaxin-4) (from UniProt P70452 1-298) (natural protein)
  percent of syntaxin-4 pulled down: 5%
